Test results reported in paper PMC11982570 (Scientific Reports, 2025).

B1: 103.2 mAb (antibody, V domains shown)
VH: QVQLQQSGAEVVRPGTSVKVSCKASGYAFTSYLIHWIKQRPGQGLEWIGVINPRSGDSHYNEKFKDRTTLTADQSSSTAYMQLSSLTSDDSAVYFCARSDYGAYWGQGTLVTVSA
VL: DIVLTQSPVTLSVTPGDSVSLSCRASQSISNNLHWYRQKSHESPRLLIKYASQSIFGIPSRFSGSGSGTEFTLSINSVETEDFGIYFCQQSNSWPHTFGTGTKLELK
B2: 103.2^15 mAb hinge variant (antibody, V domains shown)
VH: B1 VH
VL: B1 VL
B3: 103.2^5 mAb hinge variant (antibody, V domains shown)
VH: B1 VH
VL: B1 VL
B4: 103.2^30 mAb hinge variant (antibody, V domains shown)
VH: B1 VH
VL: B1 VL
B5: 103.2^10 mAb hinge variant (antibody, V domains shown)
VH: B1 VH
VL: B1 VL

Target: Biotinylated BTN3A1 ectodomain + avitag (Homo sapiens, UniProt O00481, biotin on the C-terminal BirA biotinylation sequence)
Sequence (O00481 whole entry, looked up, the tested form may be a part): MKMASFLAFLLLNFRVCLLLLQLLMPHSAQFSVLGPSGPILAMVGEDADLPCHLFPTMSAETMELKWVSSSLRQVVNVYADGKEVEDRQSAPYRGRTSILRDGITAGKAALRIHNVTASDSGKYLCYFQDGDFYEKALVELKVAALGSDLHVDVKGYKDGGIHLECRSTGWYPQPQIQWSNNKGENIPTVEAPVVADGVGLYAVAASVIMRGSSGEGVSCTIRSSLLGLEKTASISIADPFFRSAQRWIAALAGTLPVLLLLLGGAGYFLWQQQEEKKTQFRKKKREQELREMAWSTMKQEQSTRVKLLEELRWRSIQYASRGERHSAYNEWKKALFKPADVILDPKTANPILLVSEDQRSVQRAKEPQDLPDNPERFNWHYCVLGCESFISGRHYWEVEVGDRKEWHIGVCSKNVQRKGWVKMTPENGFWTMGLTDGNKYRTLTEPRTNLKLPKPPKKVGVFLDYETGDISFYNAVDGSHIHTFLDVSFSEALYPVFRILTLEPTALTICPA
Test: BLI

binding result	Binder
binds	B1
binds	B2
binds	B3
binds	B4
binds	B5
